Assay results reported in patent publication US20170267776A1 (published 2017).
Where a chain is given by its changes, count along the chain named. Each block holds one binder with its values, some of them ahead of it.

Tests used:
[1] = molecular target: T1, LGR5-Fc fusion protein (mature form containing amino acids 22-564 of human LGR5 fused to human Fc) (human, UniProt O75473 22-564); assay: SPR (Biacore 2000): RSPO-Fc immobilised on CM5 chip, soluble LGR5-Fc injected 100 nM to 0.78 nM
T1 construct: range 22-564; Expressed in insect cells (baculovirus) and purified by protein A; also called soluble LGR5-Fc; not shown: human Fc
T1 sequence (looked up): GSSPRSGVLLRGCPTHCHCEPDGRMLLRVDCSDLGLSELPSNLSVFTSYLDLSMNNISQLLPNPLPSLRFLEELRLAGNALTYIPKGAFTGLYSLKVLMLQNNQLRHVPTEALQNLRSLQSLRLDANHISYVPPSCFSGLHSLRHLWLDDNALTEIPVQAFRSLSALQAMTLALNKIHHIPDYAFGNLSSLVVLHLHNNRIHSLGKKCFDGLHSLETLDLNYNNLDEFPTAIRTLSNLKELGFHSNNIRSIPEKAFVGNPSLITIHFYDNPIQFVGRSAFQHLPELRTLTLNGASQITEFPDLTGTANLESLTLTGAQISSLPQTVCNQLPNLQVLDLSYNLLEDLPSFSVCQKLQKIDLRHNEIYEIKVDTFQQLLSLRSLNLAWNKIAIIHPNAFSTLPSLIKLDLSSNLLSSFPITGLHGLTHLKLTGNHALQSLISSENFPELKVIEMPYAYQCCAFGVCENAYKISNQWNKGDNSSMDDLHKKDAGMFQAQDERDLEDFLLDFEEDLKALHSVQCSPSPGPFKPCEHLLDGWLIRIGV
Procedure: Binding affinities between RSPO proteins and LGR5 were analyzed by surface plasmon resonance. A soluble LGR5-Fc construct was generated using standard recombinant DNA techniques. Specifically, amino acids 1-564 of human LGR5 were ligated in frame to human Fc and the recombinant LGR5-Fc fusion protein was expressed in insect cells using baculovirus. The LGR5-Fc fusion protein was purified from the insect medium using protein A chromatography. Cleavage of the LGR5 signal sequence results in a mature LGR5-Fc fusion protein containing amino acids 22-564 of LGR5. […] Two-fold dilutions of soluble LGR5-Fc were injected over the chip surface (100 nM to 0.78 nM). Kinetic data were collected over time using a Biacore 2000 system from Biacore Life Sciences (GE Healthcare) and the data were fit using the simultaneous global fit equation to yield affinity constants (KD values) for each RSPO protein (Table 3).

[2] = molecular target: T2, recombinant human RSPO3 protein, biotinylated (captured on streptavidin-coated chips) (human, UniProt Q9BXY4 22-272, limits assumed, biotinylated (sites not given)); assay: summary of Example 3 (SPR, Biacore 2000)
T2 sequence: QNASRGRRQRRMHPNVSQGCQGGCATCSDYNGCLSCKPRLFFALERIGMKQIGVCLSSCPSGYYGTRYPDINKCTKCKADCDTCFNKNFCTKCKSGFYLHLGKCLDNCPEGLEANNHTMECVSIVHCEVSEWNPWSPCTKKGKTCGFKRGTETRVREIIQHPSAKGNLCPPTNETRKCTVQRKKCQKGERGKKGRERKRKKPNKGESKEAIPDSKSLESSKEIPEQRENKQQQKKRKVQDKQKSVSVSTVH
Procedure: The antibodies were serially diluted 2-fold from 100 nM to 0.78 nM in HBS-P (0.01M HEPES pH 7.4, 0.15M NaCl, 0.005% v/v Surfactant P20) and were injected over the chip surface. Kinetic data were collected over time and were fit using the simultaneous global fit equation to yield affinity constants (KD values) for each antibody.

Kd [1]: 73 nM
B1: RSPO4-Fc fusion protein (full-length human RSPO4 ligated in-frame to a human Fc region) (Fc fusion, UniProt Q2I0M5 20-234, looked up)
chain: LNRRKKQVGTGLGGNCTGCIICSEENGCSTCQQRLFLFIRREGIRQYGKCLHDCPPGYFGIRGQEVNRCKKCGATCESCFSQDFCIRCKRQFYLYKGKCLPTCPPGTLAHQNTRECQGECELGPWGGWSPCTHNGKTCGSAWGLESRVREAGRAGHEEAATCQVLSESRKCPIQRPCPGERSPGQKKGRKDRRPRKDRKLDRRLDVRPRQPGLQP
notes: not shown: human Fc region

Kd [2]: < 10 nM
B2: anti-RSPO3 antibody 131R002 (IgG2) (antibody, V domains shown)
VH: QVQLQESGPELVKPGASVKISCKASGYTFTDYSIHWVKQNHGKSLDWIGYIYPSNGDSGYNQKFKNRATLTVDTSSSTAYLEVRRLTFEDSAVYYCATYFANYFDYWGQGTTLTVSS
VL: DIVLTQSPASLAVSLGQRATISCKASQSVDYDGDSYMNWYQQKPGQPPKLLIYAASNLESGIPARFSGSGSGTDFTLNIHPVEEEDAATYYCQQSNEDPLTFGAGTKLELKR

Kd [2]: < 10 nM
B3: anti-RSPO3 antibody 131R003 (IgG2) (antibody, V domains shown)
VH: B2 VH with Q5K, E6Q, S76Y
VL: B2 VL
notes: also called parental 131R003
